Data set [1] concerns the target T1, R17 coat protein (R17cp) (bacteriophage R17, UniProt P69170 P69170:1-129). Nature of the data set: filter; also gel shift; TMS or TMK buffer, 25 or 37 C; Kd said to agree with earlier studies but value not given. The conditions noted are these: chain copies: 2; hairpin with bulged A. Here is the method:
The reaction was initiated by adding R17 coat protein at various concentrations (0.01 nM to 1 μM). After at least 20 minutes of incubation at the desired temperature, 450 μl of the reaction mixture was filtered through pre-soaked nitrocellulose filter (Millipore-HAWP 024–0,45 μM). The amount of complex retained by the filter was determined by liquid scintillation counting. The amount of input RNA was determined by spotting a 20 μl aliquot of the reaction mixture on a filter. The fraction bound by the filter was plotted as a function of protein concentration. As previously described (Carey et al., supra; Schneider et al., 1992 J. Mol. Biol. 228, 862), the maximum amount of fraction complexed varied between 40 and 100% depending on the RNA preparation. Results were normalized to 100% of retention at saturation for purposes of calculations and to compare different experiments. […] Dissociation constant (Kd) values were then obtained from a non-linear least-square fit using sigmaplot software (Jandel Scientific). Standard error was calculated from the fit of the observed curve to the theoretical one (reported by the sigmaplot software).
A filter binding assay (Carey, et al., 1983 Biochemistry 22, 2601) is used to confirm the results from gel-shift assay described above. Referring to FIG. 9, the R17cp binds to HpR17 as well as it binds to its genuine binding site (R17bs). […]
In general terms: In EMSA bound probe runs differently from free probe, usually more slowly.

For data set [2], the target named is T1, R17 coat protein (R17cp). Nature of the data set: filter; null mutant negative control; no specific complex in gel shift. The note with it: chain copies: 2; hairpin. Here is the method: Association constants were determined by filter-binding assays (Carey et al., 1983 Biochemistry 22, 2601). Trace amount of labeled RNA (15–32 fmoles) was heat denatured and renatured in 500 μl of T.M.S buffer (40 mM Tris-HCl pH 8, 12 mM MgCl_2 and 2 mM spermidine) or TMK buffer (40 mM Tris-Acetate pH 8, 10 mM Mg.Acetate, 80 mM KCl). The reaction was initiated by adding R17 coat protein at various concentrations (0.01 nM to 1 μM). After at least 20 minutes of incubation at the desired temperature, 450 μl of the reaction mixture was filtered through pre-soaked nitrocellulose filter (Millipore-HAWP 024–0,45 μM). The amount of complex retained by the filter was determined by liquid scintillation counting. The amount of input RNA was determined by spotting a 20 μl aliquot of the reaction mixture on a filter. The fraction bound by the filter was plotted as a function of protein concentration. As previously described (Carey et al., supra; Schneider et al., 1992 J. Mol. Biol. 228, 862), the maximum amount of fraction complexed varied between 40 and 100% depending on the RNA preparation. Results were normalized to 100% of retention at saturation for purposes of calculations and to compare different experiments. […] Standard error was calculated from the fit of the observed curve to the theoretical one (reported by the sigmaplot software). […]

T1 sequence (P69170 whole entry, one chain of several): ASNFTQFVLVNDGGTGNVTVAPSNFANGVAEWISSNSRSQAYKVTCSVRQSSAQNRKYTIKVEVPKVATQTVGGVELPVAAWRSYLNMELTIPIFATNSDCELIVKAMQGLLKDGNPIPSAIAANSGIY

Regarding GAAACAUGAGGAUCACCCAUGUUU (ssRNA) [R17bs], the binding result with R17 coat protein (R17cp) [1] is “binds”.
As for GAAACAUGGGAUCACCCAUGUUU (ssRNA) [R17deltaA8], in the data set with R17 coat protein (R17cp) [2], the binding result is given as “no binding”.
